Source: patent US20120311745A1

Target: receptor protein(s) / binding site of Cry1Ab core toxin on Brush Border Membrane Vesicles (BBMV's) f (Spodoptera frugiperda)

For “Cry1Ab core toxin protein (activated core toxin prepared by trypsin digestion of the Cry1Ab protein) (from UniProt P0A370 29-612)”, the IC50 was 5 nM.
